# In US20230118307A1, “THERAPEUTIC USE OF LONG-ACTING CONJUGATE OF TRIPLE AGONIST HAVING ACTIVITIES TO ALL OF GLUCAGON/GLP-1/GIP RECEPTORS FOR LUNG DISEASE” (HANMI PHARM. CO., LTD., priority 2020, published 2023):
# Positions of bridges follow the written chain, without caps; N, C: chain ends. Non-standard residues stand in square brackets, D forms with d. No end group written: not given here. *: point of attachment. Acetyl(2-(4-imidazolyl)) = O=C(Cc1c[nH]cn1)*; Aib = CC(C)(N)C(=O)O
# T1: human GIP receptor (human, UniProt P48546 22-466)
# T1 sequence (looked up): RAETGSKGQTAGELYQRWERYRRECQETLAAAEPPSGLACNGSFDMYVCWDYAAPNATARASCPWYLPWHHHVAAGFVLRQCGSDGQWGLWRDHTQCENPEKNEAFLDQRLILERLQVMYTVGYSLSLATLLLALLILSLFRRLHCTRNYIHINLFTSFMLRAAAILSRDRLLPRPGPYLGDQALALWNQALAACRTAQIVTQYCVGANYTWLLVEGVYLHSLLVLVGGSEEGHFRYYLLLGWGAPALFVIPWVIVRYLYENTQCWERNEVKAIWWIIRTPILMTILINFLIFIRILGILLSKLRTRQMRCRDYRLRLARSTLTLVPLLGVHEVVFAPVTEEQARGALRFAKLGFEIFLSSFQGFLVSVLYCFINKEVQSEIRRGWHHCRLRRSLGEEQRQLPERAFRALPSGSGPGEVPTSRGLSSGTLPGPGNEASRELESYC
# B1: triple agonist of SEQ ID NO: 31 (peptide)
# peptide: H[Aib]QGTFTSDYSKYLDEKACKEFVQWLLAQ
# modifications: bridge 16-20
# B2: triple agonist of SEQ ID NO: 17 (peptide)
# peptide: [Acetyl(2-(4-imidazolyl))]GQGTFTSDLSKQMDEERAREFIEWLLAQKPSSGAPPPSHG
# B3: triple agonist of SEQ ID NO: 20 (peptide)
# peptide: [Acetyl(2-(4-imidazolyl))]GQGTFTSDLSIQYEEEAQQDFVEWLKDTGPSSGAPPPSHG
# B4: triple agonist of SEQ ID NO: 18 (peptide)
# peptide: [Acetyl(2-(4-imidazolyl))]GQGTFTSDLSKQMDSERAREFIEWLKNTGPSSGAPPPSHG
# B5: triple agonist of SEQ ID NO: 32 (peptide)
# peptide: H[Aib]QGTFTSDYSKYLDEKACKDFVQWLLDGGPSSGAPPPS
# modifications: bridge 16-20; also: ring type not given here
# B6: triple agonist of SEQ ID NO: 24 (peptide)
# peptide: Y[Aib]QGTFTSDYSKYLDECRAKEFVQWLKNGGPSSGAPPPS
# modifications: bridge 16-20
# B7: triple agonist of SEQ ID NO: 33 (peptide)
# peptide: H[Aib]QGTFTSDYSIAMDEIHQKDFVNWLLAQKC
# modifications: bridge 16-20; also: ring type not given here
# B8: triple agonist of SEQ ID NO: 23 (peptide)
# peptide: Y[Aib]QGTFTSDYSKYLDECRAKEFVQWLLAQKGKKNDWKHNIT
# modifications: bridge 16-20
# B9: triple agonist of SEQ ID NO: 30 (peptide)
# peptide: H[Aib]QGTFTSDYSKYLDEKAQKEFVQWLLDTC
# modifications: bridge 16-20
# B10: triple agonist of SEQ ID NO: 25 (peptide)
# peptide: H[Aib]QGTFTSDCSKYLDERAAQDFVQWLLDGGPSSGAPPPS
# B11: triple agonist of SEQ ID NO: 22 (peptide)
# peptide: Y[Aib]QGTFTSDYSKCLDEKRAKEFVQWLLDHHPSSGQPPPS
# modifications: bridge 16-20
# B12: triple agonist of SEQ ID NO: 28 (peptide)
# peptide: H[Aib]QGTFTSDYSKYLDEKRAQEFVCWLLAQKGKKNDWKHNIT
# B13: triple agonist of SEQ ID NO: 19 (peptide)
# peptide: [Acetyl(2-(4-imidazolyl))]GQGTFTSDLSIQYDSEHQRDFIEWLKDTGPSSGAPPPSHG
# B14: triple agonist of SEQ ID NO: 3 (peptide)
# peptide: H[Aib]QGTFTSDVSSYLLGQAAKQFIAWLVKGGGPSSGAPPPSC
# B15: triple agonist of SEQ ID NO: 27 (peptide)
# peptide: H[Aib]QGTFTSDYSKYLDERACQDFVQWLLDQGGPSSGAPPPS
# B16: triple agonist of SEQ ID NO: 21 (peptide)
# peptide: Y[Aib]QGTFTSDYSKYLDECRAKEFVQWLLDHHPSSGQPPPS
# modifications: bridge 16-20
# B17: triple agonist of SEQ ID NO: 26 (peptide)
# peptide: H[Aib]QGTFTSDCSKYLDSRAAQDFVQWLLDGGPSSGAPPPS
# B18: triple agonist of SEQ ID NO: 29 (peptide)
# peptide: H[Aib]QGTFTSDYSKYLDEKAAKEFVQWLLNTC
# modifications: bridge 16-20
# Test system: IPF mice (C57BL/6 mice treated with BLM)
# Experiment: Lung fibrosis in bleomycin (BLM) mice, Masson's trichrome staining
# Format: in vivo
# Details: BLM 1.5 U/head; 2 weeks; conjugate 3.9 nmol/kg Q2D subcutaneous; pirfenidone 300 mg/kg QD oral; ambroxol 45 mg/kg BID peritoneal; FIG. 5
# Protocol: In order to confirm the in vivo efficacy of the long-acting conjugate of the triple agonist prepared in the above Examples for improving pulmonary fibrosis, particularly idiopathic pulmonary fibrosis (IPF), which is a representative pulmonary fibrosis, bleomycin (BLM) mice were used. It is known that, when bleomycin is administered intratracheally, the epithelial-mesenchymal transition occurs by damaging DNA of alveolar epithelial cells, which induces idiopathic fibrosis. In addition, it is known that when the BLM treatment dose is increased above a certain level, the survival rate of the mice is reduced due to severe lung damage caused by idiopathic fibrosis. […]
# IPF mice prepared by treating C57BL/6 mice (ORIENT Bio, Busan, Korea) with BLM at 1.5 U/head were divided into an excipient control group, a long-acting conjugate of triple agonist administration group (3.9 nmol/kg, Q2D, subcutaneous), a pirfenidone administration group (300 mg/kg, QD, oral), and an ambroxol administration group (45 mg/kg, BID, peritoneal), repeated administration was performed for 2 weeks. After 2 weeks of repeated administration, lung tissue of each mouse was taken by autopsy, and the degree of fibrosis in the lung tissue was evaluated by Masson's trichrome staining. Statistical treatment evaluated the efficacy of the long-acting conjugate of the triple agonist using one-way ANOVA (*-***p<0.05-0.001).
row,Molecule,positive area of Masson's trichrome staining in the lung tissue (degree of fibrosis)
1,"Nc1c(Br)cc(Br)cc1CN[C@H]1CC[C@H](O)CC1 [ambroxol, reference compound]",same level of efficacy as the long-acting conjugate of the triple agonist

# Target: human GCG receptor (human, UniProt P47871 26-477)
# Experiment: cell-based or functional assay
# Details: not given
# Sequence of human GCG receptor (P47871 26-477): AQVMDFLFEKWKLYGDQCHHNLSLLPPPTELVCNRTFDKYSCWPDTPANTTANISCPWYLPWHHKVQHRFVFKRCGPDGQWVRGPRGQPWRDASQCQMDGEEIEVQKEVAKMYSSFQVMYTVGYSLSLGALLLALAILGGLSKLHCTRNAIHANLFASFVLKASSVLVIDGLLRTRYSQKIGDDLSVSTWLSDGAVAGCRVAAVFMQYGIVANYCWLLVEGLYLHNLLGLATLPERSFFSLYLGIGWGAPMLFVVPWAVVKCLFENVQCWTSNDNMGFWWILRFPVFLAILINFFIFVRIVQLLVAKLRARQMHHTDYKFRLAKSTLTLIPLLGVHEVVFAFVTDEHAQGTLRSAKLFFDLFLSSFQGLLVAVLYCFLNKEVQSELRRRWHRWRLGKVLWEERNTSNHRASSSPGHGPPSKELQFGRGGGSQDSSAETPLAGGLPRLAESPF
row,Molecule,In vitro Activity Compared to Native Peptide (%) vs. Glucagon [%]
1,B1,2.2
2,B2,< 0.1
3,B3,< 0.1
4,B4,< 0.1
5,B5,1.7
6,B6,9.3
7,B7,< 0.1
8,B8,9.3
9,B9,0.7
10,B10,0.1
11,B11,140
12,B12,1.6
13,B13,< 0.1
14,B14,< 0.1
15,B15,0.8
16,B16,267
17,B17,0.2
18,B18,6

# Target: human GLP-1 receptor (human, UniProt P43220 24-463)
# Experiment: cell-based or functional assay
# Details: not given
row,Molecule,In vitro Activity Compared to Native Peptide (%) vs. GLP-1 [%]
1,B1,135
2,B2,0.2
3,B3,< 0.1
4,B4,< 0.1
5,B5,151
6,B6,41.2
7,B7,24.5
8,B8,4.01
9,B9,142
10,B10,82.6
11,B11,20.1
12,B12,17.2
13,B13,< 0.1
14,B14,1.8
15,B15,83.1
16,B16,17.8
17,B17,64.5
18,B18,38.5

# Target: T1, human GIP receptor
# Experiment: cell-based or functional assay
# Details: not given
row,Molecule,In vitro Activity Compared to Native Peptide (%) vs. GIP [%]
1,B1,2.4
2,B2,< 0.1
3,B3,< 0.1
4,B4,< 0.1
5,B5,8.8
6,B6,< 0.1
7,B7,10.4
8,B8,< 0.1
9,B9,0.8
10,B10,< 0.1
11,B11,59.7
12,B12,< 0.1
13,B13,< 0.1
14,B14,< 0.1
15,B15,0.9
16,B16,22.7
17,B17,< 0.1
18,B18,< 0.1
